# Results as given in US20120316071A1 (published 2012).
# Residue numbers refer to the chain shown, from its start. Names and notes keep the numbering of the source.
# B1: Fab VH5-51_IGHD5-18*01>3_IGHJ4*01 G100K/G104T G24T/S28R/G35V (H:KT TRV) & V3-4_IGLJ1*01 S57A (Fab, V domains shown)
# VH: EVQLVQSGAEVKKPGESLKISCKTSGYRFTSYWIVWVRQMPGKGLEWMGIIYPGDSDTRYSPSFQGQVTISADKSISTAYLQWSSLKASDTAMYYCARRKYSYTYDYFDYWGQGTLVTVSS
# VL: QTVVTQEPSFSVSPGGTVTLTCGLSSGSVSTSYYPSWYQQTPGQAPRTLIYSTNTRASGVPDRFSGSILGNKAALTITGAQADDESDYYCVLYMGSGISYVFGTGTKVTVL
# notes: Fab; expressed from plasmid A (CH1, His6 and Flag tags) and plasmid E (lambda CL)
# B2: Fab VH5-51_IGHD5-18*01>3_IGHJ4*01 G100K/G104T G24T/S28R/G35V (H:KT TRV) & V3-4_IGLJ1*01 S58A (Fab, V domains shown)
# VH: B1 VH
# VL: B1 VL with A57S, S58A
# notes: as for B1
# B3: Fab VH5-51_IGHD5-18*01>3_IGHJ4*01 G100K/G104T G24T/S28R/G35V (H:KT TRV) & V3-4_IGLJ1*01 R56A (Fab, V domains shown)
# VH: B1 VH
# VL: B1 VL with R56A, A57S
# notes: as for B1
# B4: Fab VH5-51_IGHD5-18*01>3_IGHJ4*01 G100K/G104T G24T/S28R/G35V (H:KT TRV) & V3-4_IGLJ1*01 M94N (Fab, V domains shown)
# VH: B1 VH
# VL: B1 VL with A57S, M94N
# notes: as for B1
# B5: Fab VH5-51_IGHD5-18*01>3_IGHJ4*01 G100K/G104T G24T/S28R/G35V (H:KT TRV) & V3-4_IGLJ1*01 M94P (Fab, V domains shown)
# VH: B1 VH
# VL: B1 VL with A57S, M94P
# notes: as for B1
# B6: Fab VH5-51_IGHD5-18*01>3_IGHJ4*01 G100K/G104T G24T/S28R/G35V (H:KT TRV) & V3-4_IGLJ1*01 V91T (Fab, V domains shown)
# VH: B1 VH
# VL: B1 VL with A57S, V91T
# notes: as for B1
# B7: Fab VH5-51_IGHD5-18*01>3_IGHJ4*01 G100K/G104T G24T/S28R/G35V (H:KT TRV) & V3-4_IGLJ1*01 V91W (Fab, V domains shown)
# VH: B1 VH
# VL: B1 VL with A57S, V91W
# notes: as for B1
# B8: Fab VH5-51_IGHD5-18*01>3_IGHJ4*01 G100K/G104T G24T/S28R/G35V (H:KT TRV) & V3-4_IGLJ1*01 V91G (Fab, V domains shown)
# VH: B1 VH
# VL: B1 VL with A57S, V91G
# notes: as for B1
# B9: Fab VH5-51_IGHD5-18*01>3_IGHJ4*01 G100K/G104T G24T/S28R/G35V (H:KT TRV) & V3-4_IGLJ1*01 M94A (Fab, V domains shown)
# VH: B1 VH
# VL: B1 VL with A57S, M94A
# notes: as for B1
# B10: Fab VH5-51_IGHD5-18*01>3_IGHJ4*01 G100K/G104T G24T/S28R/G35V (H:KT TRV) & V3-4_IGLJ1*01 M94S (Fab, V domains shown)
# VH: B1 VH
# VL: B1 VL with A57S, M94S
# notes: as for B1
# B11: Fab VH5-51_IGHD5-18*01>3_IGHJ4*01 G100K/G104T G24T/S28R/G35V (H:KT TRV) & V3-4_IGLJ1*01 V91S (Fab, V domains shown)
# VH: B1 VH
# VL: B1 VL with A57S, V91S
# notes: as for B1
# B12: Fab VH5-51_IGHD5-18*01>3_IGHJ4*01 G100K/G104T G24T/S28R/G35V (H:KT TRV) & V3-4_IGLJ1*01 T78S (Fab, V domains shown)
# VH: B1 VH
# VL: B1 VL with A57S, T78S
# notes: Fab; expressed in E. coli with CH1 (Plasmid A, His6 and Flag tags) and lambda CL (Plasmid E); also called H:KT TRV & T78S
# B13: Fab VH5-51_IGHD5-18*01>3_IGHJ4*01 G100K/G104T G24T/S28R/G35V (H:KT TRV) & V3-4_IGLJ1*01 I98A (Fab, V domains shown)
# VH: B1 VH
# VL: B1 VL with A57S, I98A
# notes: Fab; expressed in E. coli with CH1 (Plasmid A, His6 and Flag tags) and lambda CL (Plasmid E); also called H:KT TRV & I98A
# B14: Fab VH5-51_IGHD5-18*01>3_IGHJ4*01 G100K/G104T G24T/S28R/G35V (H:KT TRV) & V3-4_IGLJ1*01 G23A (Fab, V domains shown)
# VH: B1 VH
# VL: B1 VL with G23A, A57S
# notes: Fab; expressed in E. coli with CH1 (Plasmid A, His6 and Flag tags) and lambda CL (Plasmid E); also called H:KT TRV & G23A
# B15: Fab VH5-51_IGHD5-18*01>3_IGHJ4*01 G100K/G104T G24T/S28R/G35V (H:KT TRV) & V3-4_IGLJ1*01 G27A (Fab, V domains shown)
# VH: B1 VH
# VL: B1 VL with G27A, A57S
# notes: Fab; expressed in E. coli with CH1 (Plasmid A, His6 and Flag tags) and lambda CL (Plasmid E); also called H:KT TRV & G27A
# B16: Fab VH5-51_IGHD5-18*01>3_IGHJ4*01 G100K/G104T G24T/S28R/G35V (H:KT TRV) & V3-4_IGLJ1*01 G95A (Fab, V domains shown)
# VH: B1 VH
# VL: B1 VL with A57S, G95A
# notes: Fab; expressed in E. coli with CH1 (Plasmid A, His6 and Flag tags) and lambda CL (Plasmid E); also called H:KT TRV & G95A
# B17: Fab VH5-51_IGHD5-18*01>3_IGHJ4*01 G100K/G104T G24T/S28R/G35V (H:KT TRV) & V3-4_IGLJ1*01 G97A (Fab, V domains shown)
# VH: B1 VH
# VL: B1 VL with A57S, G97A
# notes: Fab; expressed in E. coli with CH1 (Plasmid A, His6 and Flag tags) and lambda CL (Plasmid E); also called H:KT TRV & G97A
# B18: Fab VH1-46_IGHD6-6*01_IGHJ1*01 S102A/S103P/S104F/H111F (APFF) & L6_IGKJ1*01 S31R (Fab, V domains shown)
# VH: QVQLVQSGAEVKKPGASVKVSCKASGYTFTSYYMHWVRQAPGQGLEWMGIINPSGGSTSYAQKFQGRVTMTRDTSTSTVYMELSSLRSEDTAVYYCAREEYAPFSAEYFQFWGQGTLVTVSS
# VL: EIVLTQSPATLSLSPGERATLSCRASQSVSRYLAWYQQKPGQAPRLLIYDASNRATGIPARFSGSGSGTDFTLTISSLEPEDFAVYYCQQRSNWPPWTFGQGTKVEIKR
# notes: Fab made in E. coli; The constant parts (CH1 with His6 and Flag tags from plasmid A, kappa CL from plasmid C) are not added here; also called APFF & S31R
# B19: Fab VH1-46_IGHD6-6*01_IGHJ1*01 S102A/S103P/S104F/H111F (APFF) & L6_IGKJ1*01 S31T (Fab, V domains shown)
# VH: B18 VH
# VL: B18 VL with R31T
# notes: Fab made in E. coli; The constant parts (CH1 with His6 and Flag tags from plasmid A, kappa CL from plasmid C) are not added here; also called APFF & S31T
# B20: Fab VH1-46_IGHD6-6*01_IGHJ1*01 S102A/S103P/S104F/H111F (APFF) & L6_IGKJ1*01 S31Y (Fab, V domains shown)
# VH: B18 VH
# VL: B18 VL with R31Y
# notes: Fab made in E. coli; The constant parts (CH1 with His6 and Flag tags from plasmid A, kappa CL from plasmid C) are not added here; also called APFF & S31Y
# B21: Fab VH1-46_IGHD6-6*01_IGHJ1*01 S102A/S103P/S104F/H111F (APFF) & L6_IGKJ1*01 S31V (Fab, V domains shown)
# VH: B18 VH
# VL: B18 VL with R31V
# notes: Fab made in E. coli; The constant parts (CH1 with His6 and Flag tags from plasmid A, kappa CL from plasmid C) are not added here; also called APFF & S31V
# Target: T1, Recombinant Human DLL4 (human, UniProt Q9NR61 27-524)
# T1 construct: Bought recombinant human DLL4 (R&D Systems Cat#1506-D4/CF); also called delta-like protein 4; Delta-like 4
# Test: ELISA, DLL4 coated on the plate, Fab at 100 nM, signal minus blank
row,Binder,ELISA Signal-blank (100 nM Fab)
1,B1,0.598
2,B2,0.451
3,B3,0.442
4,B4,0.205
5,B5,0.256
6,B6,0.197
7,B7,0.08
8,B8,0.248
9,B9,0.216
10,B10,0.195
11,B11,0.264

# Target: T2, Recombinant Human DLL4 (human, UniProt Q9NR61 27-524)
# T2 construct: also called delta-like protein 4; rHuman DLL4
# Test: ELISA, DLL4 coated on plate, Fab at 100 nM, absorbance at 450 nm minus blank
row,Binder,ELISA Signal-blank (100 nM Fab)
1,B12,0.093
2,B13,0.162
3,B14,0.405
4,B15,0.398
5,B16,0.216
6,B17,0.129

# Target: T3, Recombinant Human DLL4 (delta-like protein 4) (human, UniProt Q9NR61 27-524)
# T3 construct: Bought recombinant human DLL4 (R&D Systems Cat#1506-D4/CF); also called rHuman DLL4
# Test: ECL (MSD) multispot binding assay, antigen spotted on plate, Fab in solution;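 further: purified Fab incubated 1 h at 20 °C, detected via TAG-labelled antibody electrochemiluminescence, antigen spot compared with the blank in the same well, ratio at least 4 counted as hit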
Binder,ECL signal,Signal/Blank
B18,166000,558
B19,191000,576
B20,188000,662
B21,–,511
